The values that follow come from US20130273046A1 (UNIVERSITE DE LAUSANNE, published 2013).

Test [1] has as its target T1, human EDAR domains I and II fused to Fc of human IgG1 (human, UniProt Q9UNE0 27-114).
T1 construct: Tested as supernatant of transfected 293T cells; also called CRD1 and CRD2 EDAR-Fc truncation protein; fragment made up of domains I and II; not shown: Fc region of human IgG1
T1 sequence: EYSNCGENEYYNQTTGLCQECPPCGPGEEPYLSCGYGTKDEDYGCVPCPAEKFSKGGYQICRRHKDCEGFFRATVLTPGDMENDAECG
Description: capture ELISA on EDAR-Fc truncation proteins. The text has this:
(§1) Epitope mapping of anti-EDAR monoclonal antibodies on recombinant human EDAR by ELISA. (A) Schematic linear representation of human EDAR showing the position of cystein residues (thin horizontal lines), of the putative N-linked glycosylation site (thick horizontal line, N), of the six structural modules (rectangles with rounded corners) composing the three cystein-rich domains (CRD1, CRD2, CRD3), of the transmembrane domain (rectangle, TMD), of the signal peptide (Leader), of the stalk and of the intracellular domain (ID). Amino acid numbers at the junctions of interest are indicated. The arrow indicates the predicted cleavage site of the signal peptide. The scheme is drawn to scale, except for the intracellular domain. (B) Wells of ELISA plates were coated with goat anti-human IgG antibody, blocked, and further incubated with human EDAR-Fc, mouse EDAR-Fc or the indicated human EDAR-Fc truncation proteins in cell supernatants of transfected cells. One well was also left without cell supernatant (Ctrl). The efficient capture of the various EDAR-Fc proteins was controlled using horseradish peroxydase-coupled donkey anti-human IgG antibody. Binding of mAbEDARs were monitored with horseradish peroxydase-coupled anti-mouse IgG antibody.
(§2) EDAR is a transmembrane protein whose extracellular part is composed of three membrane distal cystein-rich domains (CRDs) and of a proximal membrane stalk domain (FIG. 9A). Constructs coding for the entire EDAR protein, domains I and II, domains II and III, domain III and the stalk domain, domains I, II and III alone and the stalk domain alone were assembled with the Fc region of human IgG1, inserted into a mammalian expression vector and transiently transfected in 293T cells. […] The other fragments were not recognized, in particular the fragments made up of either domain I or II alone. mAbEDAR5, 6, 12 and 13 specifically recognized domain I, alone or together with domain II. mAbEDAR9, 14 and 15 only recognized Fc constructs containing the entire EDAR extracellular domain.
A general note: ELISA stands for enzyme-linked immunosorbent assay.

The target in test [2] is T2, human Fas-Fc (human, UniProt P25445 26-170, limits assumed).
T2 construct: Negative control protein; also called hFas-Fc; not shown: Fc portion
T2 sequence (looked up): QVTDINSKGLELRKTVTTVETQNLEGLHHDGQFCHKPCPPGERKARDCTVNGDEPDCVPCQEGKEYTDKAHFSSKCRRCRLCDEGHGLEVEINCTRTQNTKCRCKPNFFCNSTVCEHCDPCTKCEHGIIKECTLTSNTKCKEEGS
Description: ELISA on coated human Fas-Fc (FIG. 6C). On the procedure:
FIG. 6. Specific binding of the anti-EDAR mAb to both mouse and human EDAR. Graded concentrations of mAbEDAR1-4 or of a control mAb (Aprily 5) were added to wells of a 96-well ELISA plate coated with 100 μl of 1 μg/ml of human EDAR-Fc, mouse EDAR-Fc, human Fas-Fc or Flag-human APRIL. […] The absorbance was measured at 490 nm.
In order to obtain antibodies recognizing both human and mouse EDAR, a feature which would considerably facilitate pre-clinical development of drug candidates, EDAR-deficient mice were immunized with human EDAR. It was then assessed whether monoclonal antibodies generated from these mice indeed recognized EDAR from these two animal species. The wells of microtiter plates were coated with soluble human and mouse EDAR-Fc fusion protein and a negative control protein (human Fas-Fc), blocked and probed with serial dilutions of anti-EDAR monoclonal antibody (mAb) mAbEDAR1, 2, 3 and 4 and a negative control mAb (Aprily 5) (FIG. 6), or with a single dose of mAbEDAR1 to 15 (FIG. 9).

Test [3] addresses T3, human EDAR domain I alone fused to Fc of human IgG1 (human, UniProt Q9UNE0 27-72).
T3 construct: also called CRD1 EDAR-Fc truncation protein; not shown: Fc region of human IgG1
T3 chain: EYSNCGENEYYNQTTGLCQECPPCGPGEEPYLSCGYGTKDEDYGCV
Description: capture ELISA on EDAR-Fc truncation proteins (FIG. 9).
Excerpt: as §1, §2

The target of test [4] is T4, human EDAR domain II alone fused to Fc of human IgG1 (human, UniProt Q9R187 73-114 (mouse entry), limits assumed).
T4 construct: also called CRD2 EDAR-Fc truncation protein; not shown: Fc region of human IgG1
T4 chain: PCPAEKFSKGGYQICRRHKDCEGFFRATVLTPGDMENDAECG
The test is described as above.
Excerpt: as §1, §2

The target in test [5] is T5, human EDAR stalk domain alone fused to Fc of human IgG1 (human, limits assumed).
T5 construct: also called stalk EDAR-Fc truncation protein; not shown: Fc region of human IgG1
T5 chain: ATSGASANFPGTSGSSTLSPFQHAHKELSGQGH
Described as above.
Excerpt: as §1, §2

Another test addresses T6, Flag-human APRIL (human, UniProt O75888 110-250, limits assumed).
T6 construct: Control antigen; not shown: Flag tag
T6 sequence (looked up): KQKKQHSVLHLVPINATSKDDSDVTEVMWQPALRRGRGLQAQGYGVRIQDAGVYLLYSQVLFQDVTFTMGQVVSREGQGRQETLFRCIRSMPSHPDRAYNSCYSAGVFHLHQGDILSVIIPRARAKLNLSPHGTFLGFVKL
Description: Western blot (FIG. 7A). The text has this:
FIG. 7. Use of anti-EDAR mAb in Western blotting.
(§3) The weaker signal obtained with mouse EDAR might be explained by the lower amount of mouse EDAR-Fc loaded on the gel. Binding specificity is established by showing that none of the mAbEDARs does bind to Fas-Fc and Flag-human APRIL (while Flag-human APRIL is recognized by an anti-APRIL mAb). […] The band recognized by mAbEDAR5 in the BSA lane is probably due to a cross-contamination of EDAR-Fc in the neighboring lane.
(A western blot detects proteins with antibodies after separation by electrophoresis.)

Test [6] deals with T2, human Fas-Fc. Description: Western blot, 20 ng hFas-Fc (FIG. 7B).
Excerpt: as §3

The target of test [7] is T3, human EDAR domain I alone fused to Fc …. Description: capture ELISA on EDAR-Fc truncation proteins.
Excerpt: as §1, §2

In the next test the target is T7, human EDAR-Fc (human).
T7 construct: also called hEDAR-Fc; human EDAR (1-183)-Fc
The test can be described thus: Western blot, non-reducing, 20 ng human EDAR-Fc (FIG. 7B).
Excerpt: as §3

The target of the next test is T8, mouse EDAR-Fc (mouse).
T8 construct: also called mouse EDAR (1-183)-Fc; soluble mouse EDAR-Fc fusion protein
Description: ELISA on mouse EDAR-Fc (FIG. 9).
Excerpt: as §1, with “FIG. 9. Epitope” for “Epitope”, “One well was also left without cell supernatant (Ctrl). The efficient capture of the various EDAR-Fc proteins was controlled using horseradish peroxydase-coupled donkey anti-human IgG antibody.” left out
In order to obtain antibodies recognizing both human and mouse EDAR, a feature which would considerably facilitate pre-clinical development of drug candidates, EDAR-deficient mice were immunized with human EDAR. It was then assessed whether monoclonal antibodies generated from these mice indeed recognized EDAR from these two animal species. […]

Test [8] deals with EDAR-Fas fusion protein on Fas-deficient Jurkat cells (human or mouse EDAR not told apart) (human, UniProt P25445 169-335). The test can be described thus: cell-based or functional assay.
The target of test [9] is T9, mEDAR-Fas on Fas-deficient Jurkat cells (mouse; human, UniProt P25445 169-335, limits assumed).
T9 sequence: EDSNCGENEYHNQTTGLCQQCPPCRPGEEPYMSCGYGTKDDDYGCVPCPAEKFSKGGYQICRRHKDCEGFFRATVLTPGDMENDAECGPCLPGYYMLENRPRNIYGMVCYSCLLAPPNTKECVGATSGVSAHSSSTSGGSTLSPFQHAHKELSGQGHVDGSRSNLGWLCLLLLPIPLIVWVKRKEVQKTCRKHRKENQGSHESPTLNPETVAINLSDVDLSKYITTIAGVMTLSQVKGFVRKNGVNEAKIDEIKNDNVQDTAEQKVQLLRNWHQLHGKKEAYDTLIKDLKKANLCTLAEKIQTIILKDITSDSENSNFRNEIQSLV
The test can be described thus: cell-based or functional assay.

The target in test [10] is T10, hEDAR-Fas on Fas-deficient Jurkat cells (human, UniProt P25445 169-335, limits assumed).
T10 sequence: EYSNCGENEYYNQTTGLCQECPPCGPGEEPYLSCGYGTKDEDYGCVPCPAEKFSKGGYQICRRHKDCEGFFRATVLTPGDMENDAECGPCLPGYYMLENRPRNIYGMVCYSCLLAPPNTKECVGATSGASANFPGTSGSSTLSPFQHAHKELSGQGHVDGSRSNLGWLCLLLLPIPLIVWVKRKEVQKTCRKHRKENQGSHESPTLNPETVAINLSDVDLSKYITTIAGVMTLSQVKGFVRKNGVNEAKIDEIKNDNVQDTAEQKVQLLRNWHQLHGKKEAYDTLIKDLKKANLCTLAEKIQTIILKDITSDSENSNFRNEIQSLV
The test can be described thus: cell-based or functional assay.

Changes are numbered by the printed parent chain.

B1: mAbEDAR1 (antibody, IgG1, V domains shown)
VH: EVPLEESGGGLVKPGGSRKLSCAASGFTFSDHGMHWVRQAPEKGLEWIAYISSGSSNVYYSDTVKGRFTISRDNAKNTLFLQMTSLRSEDTAMYYCARRELLRFYFDVWGAGTTVTVSS
VL: DIQMTQTTSSLSASLGDRVTISCRASQDIGNHLNWYQQKPDGTVKLLIYYTSRIHSGVPSRFSGSGSGTDYSLTISNLEQEDIATYFCQQGNTLPWTFGGGTKLEIKR
notes: also called anti-EDAR mAb mAbEDAR1
As for B1, the binding result in [1] is “binds”; with human Fas-Fc [2], “no binding”; in [3], “no binding”; in [4] it was “no binding”; in test [5], “no binding”; in the test with Flag-human APRIL it was “no binding”.

B2: mAbEDAR3 (antibody, IgG1, V domains shown)
VH: B1 VH with H32Y, I48V, N57A, V58I, S61A, N77S, L101I, F104Y
VL: B1 VL with T7S, G30S, H32N, K39R, I54S, H55Q, I83V, Q89H, N92K, W96Y
notes: also called anti-EDAR mAb mAbEDAR3
Take B2: the binding result is listed as “binds” in test [1]; “no binding” in [3]; “no binding” in test [4]; “no binding” in test [5]; “no binding” with Flag-human APRIL; “no binding” with human Fas-Fc [6].

B3: mAbEDAR5 (antibody, IgG2b, V domains shown)
VH: QVQLKQSGPGLVQPSQSLSITCTVSGFSLSNYGVHWIRQSPGKGLEWLGVIWGGGSTDYNAAFISRLSISKDNSKSQVFFKMNSLQADDTAIYYCASYYGYYDWFAYWGQGTLVTVSA
VL: EIVLTQSPTTMAASPGEKITITCSASSIISSNYLHWYQQKPGFSPKPLIYRTSNLASGVPARFSGSGSGTSYSLTIGTMEAEDVATYYCQQGSSIPRTFGSGTKLEIKR
Turning to B3, the binding result is “binds” in test [1]; “binds” in test [7]; “binds” in the test with human EDAR-Fc; “binds” with mouse EDAR-Fc; “no binding” in the test with human Fas-Fc [6].

B4: Fc-EDA1 (Fc fusion, UniProt Q92838 245-391, looked up, not shown: a dimerising Fc or GST)
chain: ENQPAVVHLQGQGSAIQVKNDLSGGVLNDWSRITMNPKVFKLHPRSGELEVLVDGTYFIYSQVEVYYINFTDFASYEVVVDEKPFLQCTRSIETGKTNYNTCYTAGVCLLKARQKIAVKMVHADISINMSKHTTFFGAIRLGEAPAS
For B4, the “EC50 (concentration of agonist inducing half maximal decrease of cell viability), EDAR-Fas Jurkat cells” value in test [8] was 3 to 9 ng/mL. In addition, in [9], the “EC50 (concentration of agonist inducing half maximal decrease of cell viability), mEDAR-Fas Jurkat cells” value was roughly 1 ng/mL. The “EC50 (concentration of agonist inducing half maximal decrease of cell viability), hEDAR-Fas Jurkat cells” value in [10] is roughly 1 ng/mL.

B5: mAbEDAR6 (antibody, IgG2a, V domains shown)
VH: EVQLQQSGPELVKPGASVKMSCKASGYSFTGYNMHWVKQSHGKSLEWIGYIDPYNGATSKNQKFKGKATLTVDKSSTTAYIQLNSLTSEDSAVYYCARYYYGDYHWYFDVWGAGTTVTVSS
VL: DVVMTQTPLSLPVSLGDQASISCRSSQSLVHSNGNTYLHWYLQQPGQSPKLLIYKVSNRFSGVPDRFSGSGSGTDFTLKISRVEAEDLGVYFCSQHTHVPPTFGAGTKLELKR
As to B5, the binding result in test [1] is “binds”; in test [7] it was “binds”; in the test with human EDAR-Fc it was “binds”; with mouse EDAR-Fc it was “binds”; in the test with human Fas-Fc [6] it was “no binding”.
